Source: patent US9766250B2, “Method for detecting protein-protein interaction” (MEDICAL & BIOLOGICAL LABORATORIES CO., LTD., priority 2011, dated 2017)

Assays:
[1] = target: T1, interaction between BclX(L) and Bak (Homo sapiens, UniProt Q07817); assay: Time course of fluorescent foci after ABT-737 addition, BclX(L)/Bak (Example 24); assay type: cell-based; conditions: 293 cells co-expressing p62(PB1)-BclX(L) and Bak-AG; 15 μM
T1 construct: region having the 1st to 209th amino acids of the BclX(L) protein; expressed in transfected cells; host or cells: 293 cells, transient
T1 sequence (Q07817 1-209): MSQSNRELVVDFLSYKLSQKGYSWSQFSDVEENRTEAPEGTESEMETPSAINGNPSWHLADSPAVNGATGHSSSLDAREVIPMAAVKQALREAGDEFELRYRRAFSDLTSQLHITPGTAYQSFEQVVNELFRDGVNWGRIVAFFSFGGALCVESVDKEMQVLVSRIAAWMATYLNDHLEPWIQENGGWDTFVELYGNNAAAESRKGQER
Method: (§1) The plasmid DNAs were mixed in equal amounts in the following combinations, and the genes were introduced into 293 cells by the same method as that described in Example 2: • a combination of pp62(PB1)-BclX(L) with pBak-hAG; and • a combination of pp62(PB1)-BclX(L) with phAG-Bax.
(§2) Then, to the 293 cells into these plasmid DNAs were introduced, ABT-737 (manufactured by Santa Cruz Biotechnology, Inc.) was added to the final concentration of 15 μM, and images were obtained by the same method as that described in Example 2 every 30 minutes for the cells co-expressing p62(PB1)-BclX(L) and Bak-AG, and every 5 minutes for the cells co-expressing p62(PB1)-BclX(L) and AG-Bax. On the basis of the obtained images, analysis was performed by the same method as that described in Example 11, and a graph was prepared by plotting a total fluorescence intensity of fluorescent foci (assemblies) against time. Note that, in the graph, the x axis represents time (minutes), provided that time when the drug was added is 0, and the y axis represents the total fluorescence intensity of fluorescent foci (assemblies).

[2] = target: T2, interaction between BclX(L) and Bax (Homo sapiens, UniProt Q07817); assay: Time course of fluorescent foci after ABT-737 addition, BclX(L)/Bax (Example 24); assay type: cell-based; conditions: 293 cells co-expressing p62(PB1)-BclX(L) and AG-Bax; 15 μM
T2 construct: region having the 1st to 209th amino acids of the BclX(L) protein; expressed in transfected cells; host or cells: 293 cells, transient
T2 sequence (Q07817 1-209): as above
Method: as §1, §2

[3] = test system: interaction between an ERK substrate and Pin1(ww); assay: Time course of fluorescent foci after EGF and U0126, 293 cells (Example 27); assay type: cell-based
Method: On the next day, EGF (manufactured by SIGMA CO.) was added to the cells to the final concentration of 50 ng/ml. Further, 14 minutes thereafter, U0126 was added to the cells to the final concentration of 10 μM. Meanwhile, the cell observation was started 2 minutes before the EGF addition, and the observed images were obtained every 15 seconds. The obtained images were used to analyze a total fluorescence luminance of fluorescent foci (assemblies) by the same method as that described in Example 11, and a graph was prepared by plotting the total fluorescence luminance against time.

[4] = test system: interaction between calmodulin and M13 peptide of myosin light chain kinase 2; conditions: 200 μM
Method: pCalmodulin-hAG and pM13peptide-p62(PB1) were mixed in equal amounts and introduced into HeLaS3 cells by the same method as that described in Example 1. Then, 200 μM histamine (manufactured by Wako Pure Chemical Industries, Ltd.) was added thereto, and fluorescence images were captured over time.

[5] = test system: interaction between Rac1 and PBD; assay: Localization of fluorescent foci after mevastatin, Rac1/PBD (Example 22); assay type: cell-based; conditions: cells co-expressing AG-Rac1 and p62(PB1)-PBD; 10 μM; 15 hours
Method: (§3) Then, each of the following combinations of the plasmid DNAs was mixed in equal amounts and introduced into cells by the same method as in Example 2: • a combination of phAG-Rac1 with pp62(PB1)-PBD; and • a combination of phAG-Rac1 with pRhoGDI-p62(PB1). Then, after culturing for 6 hours after the transfection, an inhibitor mevastatin (Enzo Life Sciences, Inc.) against geranylgeranyl group modification was added to the final concentration of 10 μM, allowed for further culturing for 15 hours, and observed.

[6] = test system: interaction between Rac1 and RhoGDI; assay: Fluorescent foci after mevastatin, Rac1/RhoGDI (Example 22); assay type: cell-based; conditions: cells co-expressing AG-Rac1 and RhoGDI-p62(PB1); 10 μM; 15 hours
Method: as §3

[7] = target: T3, mTOR(FRB) and FKBP12 interaction (Homo sapiens, UniProt P42345+P62942); assay: Degree of fluorescent focus (assembly) formation after rapamycin, fluorescent proteins fused to mTOR(FRB) (Example 8, Table 1); assay type: cell-based; set-up: key to degree of fluorescent focus formation, Tankyrase (SAM): +++: fluorescent foci were observed in 50% or more of the HeLaS3 cells; ++: fluorescent foci were observed in 50% or less of the HeLaS3 cells; +: fluorescent foci were observed in 293T cells expressing a larger amount of proteins than that in the HeLaS3 cells; conditions: fluorescent protein fused to mTOR(FRB); for degree of fluorescent focus formation, DGKd (SAM): with FKBP12-DGKd(SAM); for degree of fluorescent focus formation, TEL (SAM): with FKBP12-TEL(SAM); for degree of fluorescent focus formation, Tankyrase (SAM): with FKBP12-Tankyrase(SAM), some combinations in 293T cells; for degree of fluorescent focus formation, P62 (PB1): with p62(PB1)-FKBP12
T3 construct: region having the 2025th to 2114th amino acids of the mTOR protein; expressed in transfected cells; host or cells: HeLaS3; 293T for some combinations with FKBP12-Tankyrase(SAM)
T3 sequence (P42345 2025-2114): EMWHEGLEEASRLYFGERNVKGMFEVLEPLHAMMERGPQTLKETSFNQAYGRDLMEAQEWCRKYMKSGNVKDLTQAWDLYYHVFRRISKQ
T3 sequence (P62942 whole entry, the tested form may be a part): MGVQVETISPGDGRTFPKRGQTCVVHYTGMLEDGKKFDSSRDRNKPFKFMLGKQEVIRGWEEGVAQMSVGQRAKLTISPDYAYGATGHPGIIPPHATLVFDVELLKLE
Method: Note that plasmid DNAs encoding fusion proteins composed of mTOR(FRB) and the corresponding fluorescent proteins were prepared as appropriate by the same method as that described in Example 2. Moreover, regarding the combinations of FKBP12-Tankyrase(SAM) with mKO2, mKeima, mMiCy1, mKO1, MiCy1, and TGuv, the test was conducted by introducing the genes into 293T cells. Specifically, the 293T cells were cultured in DMEM High glucose (manufactured by SIGMA ALDRICH CO.) containing 10% FBS (manufactured by Equitech-Bio Inc.). Moreover, the 293T cells were seeded onto an 8-well chamber (manufactured by Nunc A/S) 6 hours before the plasmid DNAs were introduced. Further, at the time of the transfection, 200 ng of the plasmid DNA encoding FKBP12-Tankyrase(SAM) and 200 ng of one of the plasmid DNAs encoding fusion proteins composed of the fluorescent proteins and mTOR(FRB) were diluted with 30 μl of OptiMEM (manufactured by Life Technologies Corporation), and 1.2 μl of TurboFect Transfection Reagent (manufactured by Thermo Fisher Scientific Inc.) was added thereto and stirred. Then, the resultant was further mixed with 300 μl of the culture solution, subsequently added to the 293T cells, and observed 48 hours later.

[8] = target: T3, mTOR(FRB) and FKBP12 interaction; assay: Degree of fluorescent focus (assembly) formation after rapamycin with TFG(PB1) (Example 9, Table 2); assay type: cell-based; set-up: key: ++: fluorescent foci were observed in 50% or less of the HeLaS3 cells; +: fluorescent foci were observed in the 293T cells expressing a larger amount of proteins than that in the HeLaS3 cells; conditions: fluorescent protein fused to mTOR(FRB), KO1 and dAG (AB) in 293T cells
[9] = test system: interaction between KRas and cRaf; assay: EGF-dependent fluorescent foci near the cell membrane, Cos-7 cells (Example 23); assay type: cell-based; conditions: Cos-7 cells co-expressing p62(PB1)-KRas(WT) and AG-cRaf(R59A); 50 ng/ml; 37° C. for 30 minutes
Method: The cells were observed using a total internal reflection fluorescence microscopy system with arc lamp source (manufactured by Olympus Corporation, IX71-ARCEVA) capable of exciting only the vicinity of the cell membrane. Additionally, regarding the combination of pp62(PB1)-KRas (WT) with the phAG-cRaf (R59A), an image was obtained when no EGF was added. After that, EGF (manufactured by SIGMA CO.) was added to the cells to the final concentration of 50 ng/ml and left standing at 37° C. for 30 minutes. Then, the resultant was observed again.

[10] = test system: interaction between HRas and cRaf; assay: Time course of fluorescent foci after EGF, HRas/cRaf (Example 28); assay type: cell-based; conditions: cells with p62(PB1)-HRas(WT) and AG-cRaf(R59A); 50 ng/ml; vicinity of the cell membrane
Method: EGF (manufactured by SIGMA CO.) was added thereto to the final concentration of 50 ng/ml. A measurement apparatus capable of detecting a fluorescent signal only in the vicinity of the cell membrane was used for the observation. Note that the observation was started 5 minutes before the EGF addition, and continued at 5-minute intervals for 30 minutes after the addition. The observation was made another 30 minutes thereafter. On the basis of the obtained image data, analysis was performed by the same method as that described in Example 11, and a graph was prepared by plotting a total fluorescence intensity of fluorescent foci (assemblies) against time. Note that, in the graph, the x axis represents time (minutes), provided that time when EGF was added is 0, and the y axis represents the total fluorescence intensity of fluorescent foci (assemblies).

Compound | degree of fluorescent focus formation, DGKd (SAM) [7] | degree of fluorescent focus formation, TEL (SAM) [7] | degree of fluorescent focus formation, Tankyrase (SAM) [7] | degree of fluorescent focus formation, P62 (PB1) [7] | also measured
CN(C)CC[C@H](CSc1ccccc1)Nc1ccc(S(=O)(=O)NC(=O)c2ccc(N3CCN(Cc4ccccc4-c4ccc(Cl)cc4)CC3)cc2)cc1[N+](=O)[O-] [ABT-737] | – | – | – | – | time when the total fluorescence luminance reached a half value [1]: approximately 80 minutes; time when the total fluorescence luminance reached a half value [2]: approximately 35 minutes
N#CC(=C(/N)Sc1ccccc1N)/C(C#N)=C(\N)Sc1ccccc1N [U0126, reference compound] | – | – | – | – | fluorescent foci after U0126 addition ([3]; same cells, 10 μM, added 14 minutes after EGF): the fluorescent foci were slowly decreased
NCCc1c[nH]cn1 [histamine] | – | – | – | – | fluorescent foci at the later time point ([4]; 490 seconds after the cytoplasm calcium ion concentration was decreased): extinguished; fluorescent focus formation after ligand addition ([4]; HeLaS3 cells expressing Calmodulin-AG and M13peptide-p62(PB1), 90 seconds after addition): fluorescent focus formation was detected
CC[C@H](C)C(=O)O[C@H]1CCC=C2C=C[C@H](C)[C@H](CC[C@@H]3C[C@@H](O)CC(=O)O3)[C@H]21 [mevastatin] | – | – | – | – | localization of the interaction between Rac1 and PBD [5]: the interaction took place only in the nuclei; interaction between Rac1 and RhoGDI [6]: reduced
Azami-Green [AG] | +++ (fluorescent foci were observed in 50% or more of the HeLaS3 cells) | +++ (fluorescent foci were observed in 50% or more of the HeLaS3 cells) | +++ (fluorescent foci were observed in 50% or more of the HeLaS3 cells) | +++ (fluorescent foci were observed in 50% or more of the HeLaS3 cells) | degree of fluorescent focus formation, TFG (PB1) [8]: ++ (fluorescent foci were observed in 50% or less of the HeLaS3 cells)
Kikume Green-Red [KikGR] | +++ (fluorescent foci were observed in 50% or more of the HeLaS3 cells) | +++ (fluorescent foci were observed in 50% or more of the HeLaS3 cells) | +++ (fluorescent foci were observed in 50% or more of the HeLaS3 cells) | +++ (fluorescent foci were observed in 50% or more of the HeLaS3 cells) | degree of fluorescent focus formation, TFG (PB1) [8]: ++ (fluorescent foci were observed in 50% or less of the HeLaS3 cells)
Kusabira-Orange 1 [KO1] | +++ (fluorescent foci were observed in 50% or more of the HeLaS3 cells) | +++ (fluorescent foci were observed in 50% or more of the HeLaS3 cells) | ++ (fluorescent foci were observed in 50% or less of the HeLaS3 cells) | +++ (fluorescent foci were observed in 50% or more of the HeLaS3 cells) | degree of fluorescent focus formation, TFG (PB1) [8]: +
Midoriishi-Cyan1 [MiCy1] | +++ (fluorescent foci were observed in 50% or more of the HeLaS3 cells) | +++ (fluorescent foci were observed in 50% or more of the HeLaS3 cells) | + | +++ (fluorescent foci were observed in 50% or more of the HeLaS3 cells) | –
dimeric Keima-Red [dKeima] | +++ (fluorescent foci were observed in 50% or more of the HeLaS3 cells) | +++ (fluorescent foci were observed in 50% or more of the HeLaS3 cells) | ++ (fluorescent foci were observed in 50% or less of the HeLaS3 cells) | +++ (fluorescent foci were observed in 50% or more of the HeLaS3 cells) | –
epidermal growth factor (NSDSECPLSHDGYCLHDGVCMYIEALDKYACNCVVGYIGERCQYRDLKWWELR; Epidermal growth factor; UniProt P01133 971-1023, looked up) [EGF] | – | – | – | – | assembly formation after EGF addition [9]: the assembly formation was observed at the cell membranes; fluorescent foci after EGF addition ([3]; 293 cells expressing p62(PB1)-ERK_substrate and AG-Pin1(ww)-NES, 50 ng/ml): fluorescent foci (assemblies) were significantly observed as time elapsed; interaction between HRas and cRaf after EGF addition [10]: took place by adding EGF
monomeric Keima-Red [mKeima] | +++ (fluorescent foci were observed in 50% or more of the HeLaS3 cells) | ++ (fluorescent foci were observed in 50% or less of the HeLaS3 cells) | + | +++ (fluorescent foci were observed in 50% or more of the HeLaS3 cells) | –
monomeric Kusabira-Orange 1 [mKO1] | +++ (fluorescent foci were observed in 50% or more of the HeLaS3 cells) | +++ (fluorescent foci were observed in 50% or more of the HeLaS3 cells) | + | +++ (fluorescent foci were observed in 50% or more of the HeLaS3 cells) | –
